The text below walks through data of patent US20200200749A1 (published 2020).

Some targets named below: BDBV sGP (BDBV (Bundibugyo ebolavirus)); MARV GP; BDBV GP (BDBV (Bundibugyo ebolavirus)).
Common to all, as to test: ELISA
In general terms: ELISA stands for enzyme-linked immunosorbent assay.

The target of a further assay is T1, SUDV GP (recombinant) (SUDV (Sudan ebolavirus), UniProt Q66814 33-650).
T1 chain: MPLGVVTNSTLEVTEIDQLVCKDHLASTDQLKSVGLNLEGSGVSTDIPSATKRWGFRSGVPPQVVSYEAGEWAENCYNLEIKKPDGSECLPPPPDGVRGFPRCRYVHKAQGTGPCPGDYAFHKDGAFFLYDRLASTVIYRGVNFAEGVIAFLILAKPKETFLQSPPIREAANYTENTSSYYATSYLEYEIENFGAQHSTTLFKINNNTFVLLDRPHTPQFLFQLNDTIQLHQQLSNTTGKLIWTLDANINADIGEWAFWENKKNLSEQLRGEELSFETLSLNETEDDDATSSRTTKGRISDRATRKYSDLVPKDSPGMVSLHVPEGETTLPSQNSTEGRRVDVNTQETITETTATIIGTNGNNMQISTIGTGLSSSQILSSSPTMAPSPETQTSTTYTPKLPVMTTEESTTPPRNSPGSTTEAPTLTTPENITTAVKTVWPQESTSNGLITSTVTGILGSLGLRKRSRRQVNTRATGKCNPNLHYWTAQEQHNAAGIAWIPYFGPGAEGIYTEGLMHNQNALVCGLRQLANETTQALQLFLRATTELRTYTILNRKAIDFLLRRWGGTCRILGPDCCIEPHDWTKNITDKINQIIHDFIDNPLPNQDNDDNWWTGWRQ

The target of assay [1] is T2, EBOV GP (recombinant, full-length extracellular domain) (EBOV (Ebola Zaire), UniProt Q05320 33-650).
T2 chain: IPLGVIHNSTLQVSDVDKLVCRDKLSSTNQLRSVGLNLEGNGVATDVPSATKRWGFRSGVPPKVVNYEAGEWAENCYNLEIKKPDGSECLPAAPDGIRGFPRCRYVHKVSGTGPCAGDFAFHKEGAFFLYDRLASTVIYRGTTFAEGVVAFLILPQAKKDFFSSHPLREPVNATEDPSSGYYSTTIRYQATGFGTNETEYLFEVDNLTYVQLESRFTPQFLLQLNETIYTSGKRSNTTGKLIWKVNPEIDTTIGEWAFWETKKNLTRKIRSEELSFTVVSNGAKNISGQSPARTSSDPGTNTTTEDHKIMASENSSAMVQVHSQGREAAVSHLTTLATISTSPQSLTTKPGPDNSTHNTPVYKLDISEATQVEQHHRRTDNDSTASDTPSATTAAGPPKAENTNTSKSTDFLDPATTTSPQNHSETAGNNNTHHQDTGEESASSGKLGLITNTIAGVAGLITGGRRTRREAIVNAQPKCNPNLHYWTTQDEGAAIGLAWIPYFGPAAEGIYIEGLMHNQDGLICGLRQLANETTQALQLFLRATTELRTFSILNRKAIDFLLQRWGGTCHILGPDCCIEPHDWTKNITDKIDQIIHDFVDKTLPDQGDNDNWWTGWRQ

B1: 223 (antibody, V domains shown)
VH: QVQLQQWGAGLLKPSETLSLTCAVYGGSFTTTYWNWIRQPPGKGLEWIGEVNYSGNANYNPSLKGRVAISVDTSKNQFSLRLNSVTAADTAIYYCTSRIRSHIAYSWKGDVWGKGTTVTVSS
VL: EIVMTQSPGTLSLSPGERATLSCRASQSVPRNYIGWFQQKPGQAPRLLIYGASSRAAGFPDRFSGSGSGTDFTLTITRLEPEDFAMYYCHQYDRLPYTFGQGTKLEIK
As usually defined, the EC50 is the midpoint of the concentration-response curve. Turning to B1, the EC50 is above 10 µg/mL in the assay with BDBV sGP, above 10 µg/mL in the assay with MARV GP and 0.022 µg/mL with BDBV GP.

B2: BDBV223 (antibody, V domains shown)
VH: B1 VH
VL: B1 VL
With B2, the EC50 in the assay with SUDV GP (recombinant) is 0.106 µg/mL; in assay [1] it was 0.024 µg/mL.

B3: BDBV324 (antibody, V domains shown)
VH: QVQLVQSGAEVKKPGASVKVSCKTSGYTFTSFEIHWVRQGSGQGLEWMGRMNPKSGDTVSAQKFQGRVTLTRDTSINAAYMELGSLSSEDTAVYYCARGPHVGEVVPGLMAGTYYFPLDVWGQGTLVTVSS
VL: DIQMTQSPSTLSASIGDRVTITCRASQSISRWLAWYQQKPGKAPKLLIYKVSDLQSGVPSRFSGSGYGTEFTLTIGSLQPDDLATYYCQQYDTYPWTFGQGTKLEIK
With B3, the EC50 with SUDV GP (recombinant) worked out at 0.09 µg/mL; in assay [1] it was 0.131 µg/mL.

B4: BDBV289 (antibody, V domains shown)
VH: QVQLVQSGAEVKKPGSSVKVSCKASGATFGSDTVTWVRQAPGQGLEWMGGIIPFFGEANYAQRFQGRVTITADKSTNTAYMELSSLRSEDTAVYFCARQINEMATFGEIHYYTYMDVWGQGTLVTVSS
VL: GSELTQDPAVSVALGQTVRITCQGDSLRNYYASWYQQKPRQAPVLVFYGKNNRPSGIPDRFSGSSSGNTASLTISGAQAEDEADYYCNSRDSSSNHLVFGGGTKLTVLS
As for B4, the EC50 with SUDV GP (recombinant) is 0.103 µg/mL; in assay [1], 0.029 µg/mL.

B5: BDBV270 (antibody, V domains shown)
VH: QVQLQESGPGLVKPSQTLSLTCTVSGASISRGLYYWSWIRQPAGKGLEWIGRIYTSGSINYNPSLKSRVTISVDTSKNQFSLRLSSVIATDTAVYYCVRDAPWGDFLTGYFGFYGMDVWGQGTLVTVSS
VL: DIVMTQSPSSLSASVGDRVTITCRASQSINTYLNWYQQKPGKAPKFLIYAASSLHSGVPSRFSGSGSGTDFTLTINSLQPDDFATYYCQQSFTTPYTFGQGTKLEIK
For B5, the EC50 worked out at 0.159 µg/mL with SUDV GP (recombinant) and 0.173 µg/mL in assay [1].
